In patent US20240287172A1 (SCIRHOM, published 2024):

T1: hiR2-FL-S583A-T7 (human, UniProt Q6PJF5 1-856)
T1 sequence: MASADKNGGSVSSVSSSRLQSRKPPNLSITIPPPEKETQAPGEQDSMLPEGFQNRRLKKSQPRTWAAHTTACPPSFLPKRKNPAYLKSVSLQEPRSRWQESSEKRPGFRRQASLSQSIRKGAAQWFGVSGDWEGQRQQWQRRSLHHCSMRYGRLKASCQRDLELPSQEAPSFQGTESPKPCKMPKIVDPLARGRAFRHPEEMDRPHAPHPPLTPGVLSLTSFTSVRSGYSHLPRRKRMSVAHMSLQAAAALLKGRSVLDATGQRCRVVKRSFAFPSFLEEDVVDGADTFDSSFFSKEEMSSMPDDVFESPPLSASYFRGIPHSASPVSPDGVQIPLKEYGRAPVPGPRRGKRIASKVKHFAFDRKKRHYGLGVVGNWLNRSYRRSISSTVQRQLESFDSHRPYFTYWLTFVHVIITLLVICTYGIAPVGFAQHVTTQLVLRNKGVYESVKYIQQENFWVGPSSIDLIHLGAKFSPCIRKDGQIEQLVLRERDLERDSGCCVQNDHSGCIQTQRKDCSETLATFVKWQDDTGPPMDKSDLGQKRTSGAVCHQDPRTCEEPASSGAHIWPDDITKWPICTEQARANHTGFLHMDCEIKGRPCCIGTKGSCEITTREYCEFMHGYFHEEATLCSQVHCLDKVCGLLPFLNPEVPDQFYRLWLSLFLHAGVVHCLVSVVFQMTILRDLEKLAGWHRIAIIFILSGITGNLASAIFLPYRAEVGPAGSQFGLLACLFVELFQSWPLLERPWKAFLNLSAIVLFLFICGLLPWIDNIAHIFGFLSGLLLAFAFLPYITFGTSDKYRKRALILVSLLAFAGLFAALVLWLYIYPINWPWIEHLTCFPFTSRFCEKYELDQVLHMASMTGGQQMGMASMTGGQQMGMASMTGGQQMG

T2: hiR2-FL-V524A-T7 (human, UniProt Q6PJF5 1-856)
T2 sequence: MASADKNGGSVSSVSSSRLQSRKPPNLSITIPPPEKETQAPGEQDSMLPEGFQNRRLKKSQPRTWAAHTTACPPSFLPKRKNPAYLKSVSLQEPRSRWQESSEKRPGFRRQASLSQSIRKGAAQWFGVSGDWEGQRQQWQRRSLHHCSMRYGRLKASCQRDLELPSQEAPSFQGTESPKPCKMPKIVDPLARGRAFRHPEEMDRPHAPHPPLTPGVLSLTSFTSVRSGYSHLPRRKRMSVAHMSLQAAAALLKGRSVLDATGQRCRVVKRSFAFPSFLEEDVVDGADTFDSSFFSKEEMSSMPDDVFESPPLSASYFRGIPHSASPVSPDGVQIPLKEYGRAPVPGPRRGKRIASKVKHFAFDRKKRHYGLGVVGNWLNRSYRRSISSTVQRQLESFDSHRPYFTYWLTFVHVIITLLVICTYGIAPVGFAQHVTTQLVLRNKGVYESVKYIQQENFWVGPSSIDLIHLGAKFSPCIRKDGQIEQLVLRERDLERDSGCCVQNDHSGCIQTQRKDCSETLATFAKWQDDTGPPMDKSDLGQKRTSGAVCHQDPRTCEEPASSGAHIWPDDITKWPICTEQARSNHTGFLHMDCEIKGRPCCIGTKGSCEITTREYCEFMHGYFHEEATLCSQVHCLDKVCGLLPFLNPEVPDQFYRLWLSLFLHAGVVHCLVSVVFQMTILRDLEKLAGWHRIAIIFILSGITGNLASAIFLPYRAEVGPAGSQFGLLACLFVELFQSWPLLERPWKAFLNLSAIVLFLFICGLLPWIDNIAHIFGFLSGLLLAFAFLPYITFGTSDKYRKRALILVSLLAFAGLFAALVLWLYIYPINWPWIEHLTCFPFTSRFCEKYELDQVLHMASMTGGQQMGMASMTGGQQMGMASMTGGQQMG


Assays:
[1] = target: T1, hiR2-FL-S583A-T7; experiment: FACS on MEF-DKO cells expressing the variant, 3 µg/ml antibody
Summary of the method: (§1)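 Read-out is PE fluorescence by flow cytometry after two-step staining: antibody at 3 μg/ml for 1 hour on ice, then PE-labelled goat anti-mouse IgG F(ab′)2 (1:100) for 1 hour on ice.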

[2] = target: T2, hiR2-FL-V524A-T7; experiment: as above
Summary of the method: as §1

Row | Binder | loss of binding vs wild type [1] | loss of binding vs wild type [2]
1 | antibody 3 (antibody, V domains shown, mouse IgG, kappa light chain; also called clone #3; purified antibody 3) VH: QVTLKESGPGILQPSQTLSLTCSFSGFSLTTFAMGIGWVRQPSGKGLEWLAHIWWDGEKYNNPVLKSRLTISKDTSKNQVFLRIANVDTPDTATYYCARISSIYYIIDNWGQGTSVTVSS VL: DIVLTQSPATLSVTPGHSVSLSCRASQSISNNLHWYQKKSHESPRLLIKYVSQSISGIPSRFSGSGSGTDFTLSINSVETEDFGMYFCQQSYNWPLTFGAGTKLELK | ≥ 30% | –
2 | antibody 50 (antibody, V domains shown, mouse IgG, kappa light chain; also called clone #50; purified antibody 50) VH: QVQLQQSGAELVRPGASVKVSCKASGYAFSNYLIEWVKQRPGQGLEWIGVINPGSGFTKYNEKFKGKATLTADKSSSTAYMQLSSLTSEDSAVYFCARGLYRAMDYWGQGTSVTVSS VL: DIQMTQSPASQSASLGESVTITCLASQTIGTWLAWYQQKPGKSPQLLIYAAASLADGVPSRFSGGGSGTKFSFKISSLQAEDFVNYYCQQIYSTPYTFGGGTKLEIK | – | ≥ 30%
